{"source": "paper PMC3472039", "about": "(Journal of molecular biology, 2012)", "target": "the molecule itself", "experiment": "crystal structure", "note": "Square brackets hold non-standard residues; d marks the D form. Ends that are not written are not given here. SeMet = C[Se]CC[C@H](N)C(=O)O", "data": [{"protein": "SeMet-QkI-Qua1(14-67) C35S (domain or fragment, UniProt Q9QYS9 14-67, looked up) TPDYL[SeMet]QL[SeMet]NDKKL[SeMet]SSLPNFSGIFNHLERLLDEEISRVRKD[SeMet]YNDTLNGSTEK", "values": [{"measurement": "stoichiometry N", "result": 2}]}]}
